Source: publication PMC8861512, “Characterization and Secretory Expression of a Thermostable Tannase from Aureobasidium melanogenum T9: Potential Candidate for Food and Agricultural Industries” (Frontiers in Bioengineering and Biotechnology, 2022)

Assays:
Experiment in all cases: purified protein
Format in all cases: biochemical, Aureobasidium melanogenum
Details in all cases: standard assay: 100 mM Na2HPO4-citric acid buffer, pH 5.0, 40 °C
purified protein [1] = substrate: COC(=O)c1cc(O)c(O)c(O)c1
purified protein [2] = substrate: O=C(O[C@@H]1Cc2c(O)cc(O)cc2O[C@@H]1c1cc(O)c(O)c(O)c1)c1cc(O)c(O)c(O)c1
purified protein [3] = substrate: CCCOC(=O)c1cc(O)c(O)c(O)c1
purified protein [4] = substrate: O=C(O[C@@H]1Cc2c(O)cc(O)cc2O[C@@H]1c1ccc(O)c(O)c1)c1cc(O)c(O)c(O)c1
purified protein [5] = substrate: O=C(O[C@@H]1Cc2c(O)cc(O)cc2O[C@H]1c1cc(O)c(O)c(O)c1)c1cc(O)c(O)c(O)c1

B1: TanA (Aureobasidium melanogenum) (protein)
chain: SKDCSKATFQKVIPSNSTFNYVTKVAEGGTFTDAEANANATGLPEGCAVSVKVPTPGNSSYNMAIYMPNKWNSRIITTGNGGYGGFTNWQDLGQYSHYGFSAITTDTGHFNPNVLDSTFALNKGSLENWGWRAMHGSVLVGKALSAAYYGQTHKFSYYSGCSTGGRQGLKEMQVSPDAFDGVFVGAPAWWIPHLSIWTSQATLANLPQNSDHHISAALANVINDEILKQCDPQDGVTDNVIMNPAGCVFNPLTLLCEGAANASACITRPQLDTLYKALHDWTYFDGTLIFPVPSLGTPLVAYIGDSPIPNPMGTGAIEHMLLNTTEPYDWSTFNESVVRLSEAIDPGHGTPDNYDLSTFQKRGGKVIHWHGEADPIIPFRSSSYFYSQVASSVAPHDIEMDSFYKFFPIAGMSHCSGSQYSPWYIAGATQPLTNVSHGVPGFDDAQHNGLLALMRWVENGTAPEQLVATKYNNDDPTKGVYRQRPLCPFPKQPIYTHGNVDSASSWKCS
notes: codon-optimised, signal peptide (first 19 of 528 residues) removed; 6xHis tag kept; secreted by Yarrowia lipolytica, Ni-IDA purified
- Km (purified protein [1]): 2810 µM
- Km (purified protein [2]): 2520 µM
- Km (purified protein [3]): 1710 µM
- Km (purified protein [4]): 2130 µM
- Km (purified protein [5]): 1860 µM
